Substrate: p-NP-C2
Conditions: pH 8; 27 °C

| Protein | Km [mM] | kcat [s⁻¹] | kcat/Km [s⁻¹ M⁻¹] |
| --- | --- | --- | --- |
| unnamed (protein) MRPPQCLLHTPSLASPLLLLLLWLLGGGVGAEGREDAELLVTVRGGRLRGIRLKTPGGPVSAFLGIPFAEPPMGPRRFLPPEPKQPWSGVVDATTFQSVCYQYVDTLYPGFEGTEMANPNRELSEDCLYLNVWTPYPRPTSPTPVLVWIYGGGFYSGASSLDVYDGRFLVQAERTVLVSMNYRVGAFGFLALPGSREAPGNVGLLDQRLALQWVQENVAAFGGDPTSVTLFGESAGAASVGMHLLSPPSRGLFHRAVLQSGAPNGPWATVGMGEARRRATQLAHLVGCPPGGTGGNDTELVACLRTRPAQVLVNHEWHVLPQESVFRFSFVPVVDGDFLSDTPEALINAGDFHGLQVLVGVVKDEGSYFLVYGAPGFSKDNESLISRAEFLAGVRVGVPQVSDLAAEAVVLHYTDWLHPEDPARLREALSDVVGDHNVVCPVAQLAGRLAAQGARVYAYVFEHRASTLSWPLWMGVPHGYEIEFIFGIPLDPSRNYTAEEKIFAQRLMRYWANFARTGDPNEPRDPKAPQWPPYTAGAQQYVSLDLRPLEVRRGLRAQACAFWNRFLPKLLSATDTLDEAERQWKAEFHRWSSYMVHWKNQFDHYSKQDRCSDL | 3 | 3170 | 1.06e+06 |
| unnamed (protein) MRPPQCLLHTPSLASPLLLLLLWLLGGGVGAEGREDAELLVTVRGGRLRGIRLKTPGGPVSAFLGIPFAEPPMGPRRFLPPEPKQPWSGVVDATTFQSVCYQYVDTLYPGFEGTEMWNPNRELSEDCLYLNVWTPYPRPTSPTPVLVWIYGGGFYSGASSLDVYDGRFLVQAERTVLVSMNYRVGAFGFLALPGSREAPGNVGLLDQRLALQWVQENVAAFGGDPTSVTLFGESAGAASVGMHLLSPPSRGLFHRAVLQSGAPNGPWATVGMGEARRRATQLAHLVGCPPGGTGGNDTELVACLRTRPAQVLVNHEWHVLPQESVFRFSFVPVVDGDFLSDTPEALINAGDFHGLQVLVGVVKDEGSYALVYGAPGFSKDNESLISRAEFLAGVRVGVPQVSDLAAEAVVLHYTDWLHPEDPARLREALSDVVGDHNVVCPVAQLAGRLAAQGARVYAYVFEHRASTLSWPLWMGVPHGYEIEFIFGIPLDPSRNYTAEEKIFAQRLMRYWANFARTGDPNEPRDPKAPQWPPYTAGAQQYVSLDLRPLEVRRGLRAQACAFWNRFLPKLLSATDTLDEAERQWKAEFHRWSSYMVHWKNQFDHYSKQDRCSDL | 8.6 | 333 | 38800 |
| unnamed (protein) MRPPQCLLHTPSLASPLLLLLLWLLGGGVGAEGREDAELLVTVRGGRLRGIRLKTPGGPVSAFLGIPFAEPPMGPRRFLPPEPKQPWSGVVDATTFQSVCYQYVDTLYPGFEGTEMWNPNRELSEDCLYLNVWTPYPRPTSPTPVLVWIYGGGFYSGASSLDVYDGRFLVQAERTVLVSMNYRVGAFGFLALPGSREAPGNVGLLDQRLALQWVQENVAAFGGDPTSVTLFGESAGAASVGMHLLSPPSRGLFHRAVLQSGAPNGPWATVGMGEARRRATQLAHLVGCPPGGTGGNDTELVACLRTRPAQVLVNHEWHVLPQESVFRFSFVPVVDGDFLSDTPEALINAGDFHGLQVLVGVVKDEGSFFLVYGAPGFSKDNESLISRAEFLAGVRVGVPQVSDLAAEAVVLHYTDWLHPEDPARLREALSDVVGDHNVVCPVAQLAGRLAAQGARVYAYVFEHRASTLSWPLWMGVPHGYEIEFIFGIPLDPSRNYTAEEKIFAQRLMRYWANFARTGDPNEPRDPKAPQWPPYTAGAQQYVSLDLRPLEVRRGLRAQACAFWNRFLPKLLSATDTLDEAERQWKAEFHRWSSYMVHWKNQFDHYSKQDRCSDL | 5.4 | 1600 | 296000 |
| unnamed (protein) MRPPQCLLHTPSLASPLLLLLLWLLGGGVGAEGREDAELLVTVRGGRLRGIRLKTPGGPVSAFLGIPFAEPPMGPRRFLPPEPKQPWSGVVDATTFQSVCYQYVDTLYPGFEGTEMWNPNRELSEDCLYLNVWTPYPRPTSPTPVLVWIYGGGFYSGASSLDVYDGRFLVQAERTVLVSMNYRVGAFGFLALPGSREAPGNVGLLDQRLALQWVQENVAAFGGDPTSVTLFGESAGAASVGMHLLSPPSRGLFHRAVLQSGAPNGPWATVGMGEARRRATQLAHLVGCPPGGTGGNDTELVACLRTRPAQVLVNHEAHVLPQESVFRFSFVPVVDGDFLSDTPEALINAGDFHGLQVLVGVVKDEGSYFLVYGAPGFSKDNESLISRAEFLAGVRVGVPQVSDLAAEAVVLHYTDWLHPEDPARLREALSDVVGDHNVVCPVAQLAGRLAAQGARVYAYVFEHRASTLSWPLWMGVPHGYEIEFIFGIPLDPSRNYTAEEKIFAQRLMRYWANFARTGDPNEPRDPKAPQWPPYTAGAQQYVSLDLRPLEVRRGLRAQACAFWNRFLPKLLSATDTLDEAERQWKAEFHRWSSYMVHWKNQFDHYSKQDRCSDL | 4.6 | 2170 | 471000 |
| unnamed (protein) MRPPQCLLHTPSLASPLLLLLLWLLGGGVGAEGREDAELLVTVRGGRLRGIRLKTPGGPVSAFLGIPFAEPPMGPRRFLPPEPKQPWSGVVDATTFQSVCYQYVDTLYPGFEGTEMWNPNRELSEDCLYLNVWTPYPRPTSPTPVLVWIYGGGFYSGASSLDVYDGRFLVQAERTVLVSMNYRVGAFGFLALPGSREAPGNVGLLDQRLALQWVQENVAAFGGDPTSVTLFGESAGAASVGMHLLSPPSRGLFHRAVLQSGAPNGPWATVGMGEARRRATQLAHLVGCPPGGTGGNDTELVACLRTRPAQVLVNHEWHVLPQESVFRFSFVPVVDGDFLSDTPEALINAGDFHGLQVLVGVVKDEGSYFLVYGAPGFSKDNESLISRAEFLAGVRVGVPQVSDLAAEAVVLHYTDWLHPEDPARLREALSDVVGDHNVVCPVAQLAGRLAAQGARVYAYVFEHRASTLSWPLWMGVPHGYEIEFIFGIPLDPSRNYTAEEKIFAQRLMRYWANFARTGDPNEPRDPKAPQWPPYTAGAQQYVSLDLRPLEVRRGLRAQACAFWNRFLPKLLSATDTLDEAERQWKAEFHRWSSYMVHWKNQFDHYSKQDRCSDL | 5.6 | 1830 | 327000 |

From the PETadex activity labels (doi:10.1016/s0021-9258(19)85305-x)
